Biological target: the molecule itself
Test: SDS-PAGE + MALDI-TOF; purified GbXΔNC heat-denatured in SDS sample buffer (2.5% β-mercaptoethanol), 15% SDS-PAGE; also 10–15% gradient gels (PhastSystem) in the absence and presence of DTT; bands identified by MALDI-TOF after tryptic digest

B1: N- and C-terminally truncated Danio rerio globin X (GbXΔNC) (domain or fragment, Danio rerio (zebrafish), UniProt A0AC58HMV5 25-184, looked up)
chain: PAGLTANHIRLIKESWRLIQEDIAKVGIIMFVRLFETHPECKDVFFLFRDVEDLERLRTSRELRAHGLRVMSFIEKSVARLDQLERLETLALELGKSHYRYNAPPKYYGYVGAEFICAVRPILKDRWTPELEEAWKTLFQYVTSIMREGFLEEERNKRSN
notes: globin X (GbX) of zebrafish (Danio rerio), amino acids 25 to 184 (the globin core), cloned into pET3a; Heme protein; No tag is mentioned for the pET3a construct; also called recombinant truncated GbX; source: E. coli BL21(DE3)pLysS, purified (ammonium sulfate precipitation, ion-exchange, size exclusion chromatography)
In the case of B1, the “stoichiometry N” value is reported as 2.

— PMC3176823, “A Membrane-Bound Vertebrate Globin” (PLoS ONE, 2011)
